Test results from patent publication CN112225809A (FUZHOU CHUANGFANG PHARMACEUTICAL TECH CO LTD, dated 2021).

How the values were obtained:
[1] = target: T1, Human PD1/PDCD1 Protein Biotinylated (Sinobiological, Cat.No.10377-H03H-B) (human, UniProt Q15116 25-167, biotinylated); assay: BLI (Octet Red96), biotinylated PD-1 on SA sensor, antibody in solution from 50 nM in two-fold dilutions
T1 construct: Bought reagent; also called 抗原; 人PD-1

[2] = target: T2, hPD1/Fc of human IgG1 (fluorescently labelled) (human, UniProt Q15116 25-167, limits assumed, labelled with Alexa Fluor 488 (Example 2); printed as hPD-1/hFc-FITC in Example 5.5); assay: flow cytometry blocking assay: Alexa Fluor 488 labelled hPD1/Fc on SPC-A1-PDL1 cells
T2 construct: also called hPD-1/hFc-FITC; 荧光标记的PD1(Dimeric); not shown: Fc of human IgG1
T2 sequence (Q15116 25-167 limits assumed): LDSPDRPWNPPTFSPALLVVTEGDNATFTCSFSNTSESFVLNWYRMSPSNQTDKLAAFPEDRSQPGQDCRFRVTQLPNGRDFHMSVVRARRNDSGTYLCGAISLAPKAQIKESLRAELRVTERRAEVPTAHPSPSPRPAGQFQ

T1 sequence (Q15116 25-167 limits assumed): as above

B1: hUM1-30 (antibody, human IgG4 S228P, kappa, V domains shown)
VH: EVQLVESGGGLVQPGGSLRLSCAASGFTFSTYGMSWVRQAPGKGLEWVSTISGGGRYTYYPDSVKGRFTISRDNSKNTLYLQMNSLRAEDTAVYYCARQKGTTWFAHWGQGTLVTVSS
VL: DIQMTQSPSSLSASVGDRVTITCRASESVDDNGISFMNWFQQKPGKAPKLLIYAASNQGSGVPSRFSGSGSGTDFTLTISSLQPEDFATYYCQQSKEVPWTFGQGTKVEIKR
notes: Humanised from UM1-56; also called 人源化PD-1单克隆抗体(hUM1-30); UM1-56H-1 + UM1-56K-2
- Kd [1]: 3.34 pM
- koff [1]: 5.43e-06 s⁻¹
- kon [1]: 1.63e+06 M⁻¹ s⁻¹

B2: UM1-56 (antibody, mouse IgG1, V domains shown)
VH: EVKLVESGGGLVKPGGSLKLSCAASGFTFSTYGMSWVRQTPEKRLEWVATISGGGRYTYYPDSVKGRFTISRDNAKNNLYLQMSSLRSEDTALYYCARQKGTTWFAHWGQGTLVTVSA
VL: not shown
notes: Mouse hybridoma antibody purified on Protein G; primers were designed on mouse IgG1 and kappa; also called 鼠源PD-1单克隆抗体UM1-56
- binding result [2]: binds
